# Measured values from the DeepSol protein solubility set.
# Assay: soluble on expression in E. coli; label from the status in PepcDB or PDB records
row,Sequence,soluble on expression in E. coli
1,TAPSQVLKIRRPDDWHLHLRDGDMLKTVVPYTSEIYGRAIVMPNLAPPVTTVEAAVAYRQRILDAVPAGHDFTPLMTCYLTDSLDPNELERGFNEGVFTAAKLYPANAVTNSSHGVTSVDAIMPVLERMEKIGMPLLVHGEVTHADIDIFDREARFIESVMEPLRQRLTALKVVFEHITTKDAADYVRDGNERLAATITPQHLMFNRNHMLVGGVRPHLYCLPILKRNIHQQALRELVASGFNRVFLGTDSAPHARHRKESSCGCAGCFNAPTALGSYATVFEEMNALQHFEAFCSVNGPQFYGLPVNDTFIELVREEQQVAESIALTDDTLVPFLAGETVRWSVKQ,soluble
2,TDNFSWSTNLNFSYNDNKIKELVDDLPNGLTLTDFGGAKVILKEGGHYGDLYVRHLMRDENGKPLQNEKGEPIVSGDSMDELEYAGNMNAKVNMGWTNTFRYKDFSLSFLIDAKFGGKVISMTEAALDGWGVSKRSGEARDAGGITVDGVKFDADKYYRTTGNNNFNSPYAVENYVYDATNIRLREVTFGYTFRNLLGAGKNLTAAIIGRNLFFFHKDAPMDPDVSAGTGNGIQGVDMFALPTSRSFGLNLKLNF,not soluble
3,TEDFRWKTTFNYSQNRNKVVELAPNYTSFVYGDPGFSMAYMMQIKEGGSLGDIYGNTFARDEQGKIKVSDEGKPISESGNKTYLGNCNPDFLLSWANTFTYKGFSLYFLIDMRKGGDVMSLTQATLDGRGVTKATAEARDRGYVEVDGTRFENVEGFYSVVGDRNGISERYMYSATNIRLRELSLSYSFPSTLLAKTKVFTGIDVSLVGRNLFFFYKDAPFDPDAILSVGNTNQGVDVFGMPTTRNIGFNVKFTF,not soluble
4,TELTKCKVSHAIKDIDGYQGISLLEWACVLFHTSGYDTQAVVNDNGSTEYGLFQISDRFWCKSSEFPESENICGISCDKLLDDELDDDIACAKKILAIKGIDYWKAYKPMCSEKLEQWRCEKP,soluble
5,TKEGMLHYKAGTSYLGKEHWKTCFVVLSNGILYQYPDRTDVIPLLSVNMGGEQCGGCRRANTTDRPHAFQVILSDRPCLELSAESEAEMAEWMQHLCQAVSKGVIPQGVAPS,soluble
6,TKNWKWEMNFNIAKNSNKLVELADGVDSYSIYWTSFTTRLYNYAMVGKSLGVITGNTWERDDNGNIIFHELSASQKALYGGEYVPTYNQNTLDELGNFHPDFTGGFNTSISFKNFRLSANIDFSVGGQIVSYTNMWGSSSGILDKTAELNDRGVNVREPVSKGGGIHMTGVDQNGNKVDTYVNAKLYYTTASRVWEEWVYDRTYVKLREVSLSYVFPSQTLKKLNIGLSRASVAINASNPWLIYSACPNVDVSEIGMGYFEGGNAAATRSIGFTVNLAF,not soluble
7,TLFDGIARAVCRAGCLPRKELYEAWEVARRVRRRFRGGRVVDLACGHGLLAWIMLLLDDSSPGALAVDRRLPPSAAGLAAVLETEWPRLRGRVRLLEADLAEVELGRDDLVVSAHACGGLTDLVLARAVAAGARVAVLPCCHDLAGADLAGLQGWLDGPLAMDVLRATGLRERGYRVFTQQ,not soluble
8,TLTVNGPPIISSTQTQHALHGEKGQIKCFIRSTPPPDRIAWSWKENVLESGTSGRYTVETISTEEGVISTLTISNIVRADFQTIYNCTAWNSFGSDTEIIRLKEQGSEM,soluble
9,TMLCVLTTDAAAEPAALERALRRAAAATFDRLDIDGSCSTNDTVLLLSSGASEIPPAQADLDEAVLRVCDDLCAQLQADAEGVTKRVTVTVTGAATEDDALVAARQIARDSLVKTALFGSDPNWGRVLAAVGMAPITLDPDRISVSFNGAAVCVHGVGAPGAREVDLSDADIDITVDLGVGDGQARIRTTDLSHAYVEENSAYSS,soluble
10,TMNPLYSVKRAEKRRNVVLGRMLEVGKITQQQYEQAKAETVTATFYGTALEFRADYVTEMIRQEMVKRYGEDVAYNKGF,not soluble
11,TNLISVNSRSYRLSSAPTIVICVDGCEQEYINQAIQAGQAPFLAELTGFGTVLTGDCVVPSFTNPNNLSIVTGAPPSVHGICGNFFFDQETQEEVLMNDAKYLRAPTILAEMAKAGQLVAVVTAKDKLRNLLGHQLKGICFSAEKADQVNLEEHGVENILARVGMPVPSVYSADLSEFVFAAGLSLLTNERPDFMYLSTTDYVQHKHAPGTPEANAFYAMMDSYFKRYHEQGAIVAITADHGMNAKTDAIGRPNILFLQDLLDAQYGAQRTRVLLPITDPYVVHHGALGSYATVYLRDAVPQRDAIDFLAGIAGVEAVLTRSQACQRFELPEDRIGDLVVLGERLTVLGSAADKHDLSGLTVPLRSHGGVSEQKVPLIFNRKLVGLDSPGRLRNFDIIDLALNHLA,soluble
12,TPAGSFGLEFSFSYQKFTASFQPNYRRQTYSYSNTYEWHDANNVQNYLQLTYNQKTQLDYIEFPLFIRYDIISGAFKPFVQAGFYYAILNSATKQLNIEGVDHSGGTSRSFTEPVTIIGADDLFINSSIGAALGLGTSYKVGNIRLILDATYRMGLNNISNVQNRYISNSLSGAGDVSDDLKLNNITFSFGCLFPMKFLISPSHKAVD,not soluble
13,TPLSRSERIELQSLLSARQYDAGAPDGIIGANTRKAIRSAQQSFGWPADGYPTHELLEALRKPVGQ,not soluble
14,TPTTFVHLFEWNWQDVAQECEQYLGPKGYAAVQVSPPNEHITGSQWWTRYQPVSYELQSRGGNRAQFIDMVNRCSAAGVDIYVDTLINHMAAGSGTGTAGNSFGNKSFPIYSPQDFHESCTINNSDYGNDRYRVQNCELVGLADLDTASNYVQNTIAAYINDLQAIGVKGFRFDASKHVAASDIQSLMAKVNGSPVVFQEVIDQGGEAVGASEYLSTGLVTEFKYSTELGNTFRNGSLAWLSNFGEGWGFMPSSSAVVFVDNHDNQRGHGGAGNVITFEDGRLYDLANVFMLAYPYGYPRVMSSYDFHGDTDAGGPNVPVHNNGNLECFASNWKCEHRWSYIAGGVDFRNNTADNWAVTNWWDNTNNQISFGRGSSGHMAINKEDSTLTATVQTDMASGQYCNVLKGELSADAKSCSGEVITVNSDGTINLNIGAWDAMAIHKNAKLNTSSAS,soluble
15,TRTEISPGKAPFTIEHNQTVVTIGSCFSDMIGEKLQYYKFDVLANPFGTTFNPISIFQLLTIAIEKKFNPFPASLGEIWYDHQFHSEVSALSAEALHELTNERIAAATKSLARASCLVITLGSAWVYRHVETNTIVNNCHKQSGRYFKKELLSVKHILEDFETVYAKLKELNPSIKIIFTVSPVRHIKDTLQLNSVSKAILLSSVHYMCEQHTDCHYFPSYEIQMDDLRDYRYYAEDLIHPSKQAEKYIWKKLSNWVFSSDLLAALEEWDQLQKLLHHKAF,not soluble
16,TSLKQNQLNLSTLLVNPEGPTLTQLNSVQSSERPLFLVHPIEGSTTVFHSLAAKLSVPTYGLQCTQAAPLDSIPNLAAYYIDCIKQVQPEGPYRIAGYSFGACVAFEMCSQLQAQQGPAPTHNNLFLFDGSHTYVLAYTQSYRAKMTPGCEAEAEAEALCFFIKQFLDVEHSKVLEALLPLKSLEDRVAASVDLITKSHHSLDRRELSFAAVSFYHKLRAADQYKPKAKYHGNVTLLRAKTGGTYGEDLGADYNLSQVCDGKVSVHIIEGDHRTLLEGSGLESIINIIHSS,soluble
17,TSTMGNLQTAINDKSGTLASQNFLDADEQKRNAYNQAVSAAETILNKQTGPNTAKTAVEQALNNVNNAKHALNGTQNLNNAKQAAITAINGASDLNQKQKDALKAQANGAQRVSNAQDVQHNATELNTA,soluble
18,TYKKPSDAELKRTLTEEQYQVTQNSATEYAFSHEYDHLFKPGIYVDVVSGEPLFSSADKYDSGSGWPSFTRPIDAKSVTEHDDFSYNMRRTEVRSHAADSHLGHVFPDGPRDKGGLRYSINGASLKFIPLEQMDAAGYGALKSKVK,soluble
19,TYSLRTFFVRESAEGLTQGELMKLIKEIVENEDKRKPYSDQEIANILKEKGFKVARRTVAKYREMLGIPSSRERRI,soluble
20,VADTDGHYRVRAITEISSFNETLGATFSDKEFDTIGGLVINKFGRLPKNGESITIEGFNFTVTRADSRRLHLLKVERIEPGVVEDADSHDSV,not soluble
